Assay [1] deals with T1, His-huTDP-43 domain III (amino acid residues 183-273) (human).
T1 construct: Amino terminal His-tagged fragment, E. coli
T1 chain: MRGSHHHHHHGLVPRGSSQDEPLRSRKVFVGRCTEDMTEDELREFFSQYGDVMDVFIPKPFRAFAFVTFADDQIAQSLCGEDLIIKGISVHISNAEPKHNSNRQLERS
As to the kind of experiment: Western blot. The protocol:
(§1) Non-specific binding sites were blocked for 1 hr. at room temperature with PBST containing 2% BSA (Sigma, Buchs, Switzerland). Blots were incubated overnight with primary antibodies (10 nM) followed by either a donkey anti-human IgGγ-specific secondary antibody conjugated with HRP (Jackson ImmunoResearch, USA) or a goat-anti mouse IgG (H+L)-specific secondary antibody conjugated with HRP (Jackson ImmunoResearch, USA). Blots were developed using ECL and ImageQuant 350 detection (GE Healthcare, Otelfingen, Switzerland).
(§2) Commercially available TDP-43 specific antibody TARDBP (M01), clone 2E2-D3 (Abnova, Taiwan) was used as positive control for human TDP-43 detection whereas, an anti-human IgG Fcγ-specific antibody was used as a negative control. Binding of the human-derived antibodies to specific TDP-43 domains was determined by Western Blot analysis.
Background: In western blotting, separated proteins are transferred to a membrane and probed.

For assay [2], the target named is T2, recombinant full-length His-tagged human TDP-43 (2-414) (human, UniProt Q13148 2-414).
T2 construct: Amino terminal His tag, made in E. coli, purified in 8 M urea; also called full length TDP-43; full-length TDP-43
As to the kind of experiment: direct ELISA, coated antigen. On the procedure: (§3) The half maximal effective concentration (EC₅₀) of the human-derived TDP-43-specific antibodies for human TDP-43 and their target target-specificity was determined substantially as described in Example 2 above. Briefly, 96 well microplates (Corning) were coated with recombinant full length TDP-43 (Biogen Idec, USA), Escherichia coli extract and BSA (Sigma, Buchs, Switzerland), diluted to a concentration of 5 μg/ml in carbonate ELISA coating buffer (pH 9.6) overnight at 4° C. […] Non-specific binding sites were blocked for 1 hr. at room temperature with PBS containing 2% BSA (Sigma, Buchs, Switzerland). Human TDP-43-specific antibodies were diluted to the indicated concentrations and incubated 1 hr. at room temperature. Binding was determined using a donkey anti-human IgGγ-specific secondary antibody conjugated with HRP (Jackson ImmunoResearch, USA), followed by measurement of HRP activity in a standard colorimetric assay. EC₅₀ values were estimated by a non-linear regression using GraphPad Prism software (San Diego, USA).
On the technique in general: In an ELISA, binding on a coated surface is turned into a signal by an enzyme label.

The target of assay [3] is T2, recombinant full-length His-tagged …. As to the kind of experiment: direct ELISA, coated antigen. On the procedure: as §3
This is another data set of the same source.

Assay [4] deals with T3, 6xHis-SUMO-TDP-43 (1-414), properly folded full length (human, UniProt Q13148 1-414).
T3 construct: Purified with KSCN and arginine, monomeric; captured on the plate by an anti-6xHis antibody; also called folded full-length TDP-43; 6xHis/SUMO tagged full length TDP-43; not shown: N-terminal 6xHis and SUMO tags from a modified pET19-b vector
T3 sequence (Q13148 whole entry): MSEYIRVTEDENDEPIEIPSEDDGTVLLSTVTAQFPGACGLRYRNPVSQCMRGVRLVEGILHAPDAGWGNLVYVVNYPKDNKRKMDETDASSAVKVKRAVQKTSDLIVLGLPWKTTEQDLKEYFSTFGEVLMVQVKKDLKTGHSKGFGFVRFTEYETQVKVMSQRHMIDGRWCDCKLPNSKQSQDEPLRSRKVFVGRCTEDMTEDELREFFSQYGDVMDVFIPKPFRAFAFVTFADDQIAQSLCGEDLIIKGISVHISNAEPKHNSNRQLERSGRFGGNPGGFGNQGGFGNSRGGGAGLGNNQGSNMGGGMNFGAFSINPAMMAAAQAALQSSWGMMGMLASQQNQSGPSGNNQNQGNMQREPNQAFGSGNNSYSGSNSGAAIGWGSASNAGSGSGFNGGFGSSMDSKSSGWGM
In words: capture ELISA, antigen held by anti-6xHis antibody. On the procedure: (§4) Non-specific binding sites were blocked for 1 hr at RT with PBS containing 1% BSA (Sigma) and 0.05% Tween-20 (Fisher Scientific). 6×His-SUMO-TDP43 proteins at a concentration of 1.7 μM were allowed to bind to antibody-coated plates for 1 hr at RT in PBS buffer containing 1% BSA, 300 mM arginine and 0.1% PEG 5000, pH 7.5. Plates were incubated for 1 hr at RT with human antibodies of present invention, titrated in a three-fold dilution series, followed by HRP conjugated anti-human IgG Fc γ (Jackson ImmunoResearch) in PBST containing 1% BSA. HRP activity was measured in a standard colorimetric assay. EC₅₀ values were calculated using a four-parameter logistic curve fit on Softmax pro software (Molecular Devices).
(§5) We measured the binding affinity of the human-derived TDP-43 specific antibodies provided herein to properly folded 6×His/SUMO tagged TDP-43 using a capture ELISA in which native TDP-43 was immobilized without direct adsorption on the surface of the ELISA plate. This was achieved by immobilizing an anti 6×His antibody which then captured native TDP-43. […] After this immobilization step, binding by human antibodies was tested in regular buffers without interference of TDP-43 aggregation.

Assay [5] concerns the target T4, 6xHis-SUMO-TDP-43 (220-414) (human, UniProt Q13148 220-414).
T4 construct: Captured on the plate by an anti-6xHis antibody; also called 6xHis/SUMO tagged truncated TDP-43; not shown: N-terminal 6xHis and SUMO tags from a modified pET19-b vector
As to the kind of experiment: capture ELISA, antigen held by anti-6xHis antibody. On the procedure:
as §4, §5

Assay [6] has as its target T5, His-huTDP-43 domain I (amino acid residues 2-106) (human).
T5 construct: Amino terminal His-tagged fragment, E. coli; also called N-terminal domain
T5 chain: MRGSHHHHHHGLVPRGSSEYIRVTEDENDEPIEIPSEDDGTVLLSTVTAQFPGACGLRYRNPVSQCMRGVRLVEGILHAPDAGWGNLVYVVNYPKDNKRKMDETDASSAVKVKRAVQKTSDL
As to the kind of experiment: direct ELISA, His-tagged TDP-43 fragments coated at 6.6 ug/ml, OD 450. The protocol: (§6) Non-specific binding sites were blocked for 1 hr. at room temperature with PBST containing 2% BSA (Sigma, Buchs, Switzerland). Antibodies were incubated 1 hr. at room temperature. Binding was determined using either a donkey anti-human IgGγ-specific antibody conjugated with HRP (Jackson ImmunoResearch, USA) or a goat-anti mouse IgG (H+L)-specific secondary antibody conjugated with HRP (Jackson ImmunoResearch, USA)., followed by measurement of HRP activity in a standard colorimetric assay.

Assay [7] has as its target T6, His-huTDP-43 domain II (amino acid residues 99-204) (human).
T6 construct: Amino terminal His-tagged fragment, E. coli
T6 chain: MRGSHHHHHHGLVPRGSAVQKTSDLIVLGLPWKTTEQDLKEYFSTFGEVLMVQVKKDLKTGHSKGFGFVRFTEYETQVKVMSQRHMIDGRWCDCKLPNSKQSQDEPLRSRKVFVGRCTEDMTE
The description is as above. On the procedure:
as §6

Assay [8] concerns the target T7, His-huTDP-43 domain IV (amino acid residues 258-414) (human, UniProt Q13148 258-414).
T7 construct: Amino terminal His-tagged fragment, E. coli, solubilized in 8 M urea; also called Glycine-rich domain
Described as above. The protocol:
as §6

Assay [9] deals with T6, His-huTDP-43 domain II (amino acid …). As to the kind of experiment: Western blot. On the procedure: as §1, §2
In assay [10] the target is T1, His-huTDP-43 domain III (amino acid …). In words: direct ELISA, His-tagged TDP-43 fragments coated at 6.6 ug/ml, OD 450. On the procedure:
as §6

Where two headings read alike, the source gives them in different places. Bounds are passed on as bounds.

T4 sequence (Q13148 220-414): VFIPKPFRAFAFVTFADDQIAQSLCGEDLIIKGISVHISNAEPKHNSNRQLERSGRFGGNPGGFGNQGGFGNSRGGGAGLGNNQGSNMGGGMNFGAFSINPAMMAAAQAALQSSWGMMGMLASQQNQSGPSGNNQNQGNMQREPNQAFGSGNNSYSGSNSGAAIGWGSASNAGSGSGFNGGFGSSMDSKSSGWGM
T7 sequence (Q13148 other isoform, or with tags, fused parts or gaps limits assumed): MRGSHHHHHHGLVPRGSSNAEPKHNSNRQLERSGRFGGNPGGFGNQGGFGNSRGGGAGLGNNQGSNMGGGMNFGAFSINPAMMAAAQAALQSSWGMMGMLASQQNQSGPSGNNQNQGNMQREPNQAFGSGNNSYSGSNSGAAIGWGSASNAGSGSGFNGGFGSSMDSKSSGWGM

B1: NI-205.51C1 (antibody, human IgG1, V domains shown)
VH: EVQLVESGGGLVQPGGSLRISCTTSGFIFSDYWMHWVRQAPGKGLTWVSRINLDGSDTIYADSVKGRFTISRDNDKNTLYLQMNSLRVEDTAIYYCARSRKSVWGQGTMVTVSS
VL: QSALTQPASVSGSPGQSITISCTGSNTDVGAYDYVSWSQQLPGKAPKFVIFDVDVRPSGISDRFSGSKSGNTASLTISGLQAEDEADYYCSSYTKSGTLVFGGGTKVTVV
notes: Human-derived
As a reminder, the EC50 is the concentration giving half of the maximal effect. On to B1, for which the binding result was “binds” in assay [1]; “no binding” in assay [5]; “no binding” in assay [6]; “no binding” in assay [7]; “no binding” in assay [8]. Also, the results for the EC50 in assay [2], in [3] and in [4] were 0.18 nM, 0.18 nM and 1.1 nM, respectively.

B2: NI-205.21G2 (antibody, human IgG1, V domains shown)
VH: QVQLVQSGAEVKKPGASVKVSCKTSGYSFTSYTLHWVRQAPGHRPEWMGWINAAFINTKYSQKFQGRITLTRDTSANIAYLELRSLTTEDTAVYYCARRASGSNGLDVWGQGTTVTVSS
VL: DIQMTQSPSSLSASVGDRITITCQASRDITNYLNWYQQKPGKAPKLLIYDASYLETGVPSTFSGSGSGTHFTLTISSLQPDDFATYYCQQYDSVPLTFGGGTKVEIK
notes: Human-derived
Take B2: the binding result in assay [9] was “binds”; in assay [5], “no binding”; in assay [6], “no binding”; in assay [10] it was “no binding”; in assay [8] it was “no binding”. Moreover, the EC50 in assay [2] was found to be 0.24 nM; in assay [3], 0.24 nM; in assay [4], 3.6 nM.

B3: NI-205.3F10 (antibody, human IgG1, V domains shown)
VH: EVQLLESGGDLVQPGGSLRLSCAASGFTFSSQAMSWVRQAPGKGLEWVSALSRTGDYTWYADSVRGRFTVSRDDSKNIFYLEMNSLRAEDTAVYYCAKNYYSSFGYNWAAFHIWGQGTMVTVSS
VL: EIVLTQSPGTLSLSPGERATLSCRASQDVNNNYLAWYQQKPGQAPRLLIYGASRRATGVPDRFSGRGSGTDFTLTINRLEPEDFAMYFCQQYGGSPPYTFGQGTKLEIK
notes: Human-derived
As for B3, the binding result is “binds” in assay [1]; “no binding” in [5]; “no binding” in assay [6]; “no binding” in assay [7]; “no binding” in assay [8]. For the same molecule, the EC50 in assay [2] was 1.4 to 2.8 nM; in assay [3], 1.4 nM; in assay [4] it was greater than 90 nM.
